Legend:
[1] = target: MSA (mouse serum albumin) (Mus musculus, UniProt P07724); assay: Biosensor (Biacore) analysis of ABD variants' binding to mouse serum albumin; conditions: N-terminal His6-tagged proteins injected at 25 nM; MSA immobilized 350 RU; qualitative measure of relative affinities
Description: (§1) ABDwt and the twelve ABD variants, all sub-cloned in pAY442 as described above, were expressed in E. coli BL21(DE3) as fusions to an N-terminal His6-tag and purified by IMAC. A colony of each ABD variant was used to inoculate 5 ml TSB medium supplemented with 50 μg/ml kanamycin. The cultures were grown over night at 37° C. The following day, 50 μl of each culture were inoculated separately to 100 ml TSB+YE medium supplemented with 50 μg/ml kanamycin in a 1 liter flask. The cultures were grown at 100 rpm at 37° C. to an OD600 of 0.7-1, after which IPTG was added to a final concentration of 0.5 mM and cells were incubated at room temperature over night at 100 rpm. Cultures were harvested by centrifugation at 8000 g for 5 minutes and pellets were stored in a freezer until protein preparation.
(§2) The His6-tagged proteins were IMAC purified under denatured conditions using Ni-NTA Superflow columns and QIAsoft 4.1, protein/Ni-NTA Superflow 96 denaturing large scale 2 Vac4-24 samples, on a Biorobot 3000 (Qiagen). The buffer was exchanged to PBS using a dialysis cassette (Slide-A-Lyser, 3.5 kDa; Pierce cat. no. 66330) by dialyzing against 5 l PBS for 2 h followed by an additional dialysis over night. […]

[2] = target: T1, HSA (human serum albumin) (Homo sapiens, UniProt P02768); assay: Biosensor analysis for binding kinetics to human serum albumin (Example 3); conditions: His6-tagged; HSA immobilized 450 RU; values estimated
Description: ABD00003, ABD00053, ABD00239 and ABDwt were expressed in E. coli BL21(DE3) cells as fusions to an N-terminal His6-tag using constructs as described in Example 2, and purified by IMAC. A colony of each ABD variant was used to inoculate 10 ml TSB medium supplemented with 50 μg/ml kanamycin. The cultures were grown over night at 37° C. The following day, 500 μl of each culture were inoculated separately to 500 ml TSB+YE medium supplemented with 50 μg/ml kanamycin in a 5 liter flask. The cultures were grown at 100 rpm and 37° C. to an OD600 of 0.7-1, which was followed by addition of IPTG to a final concentration of 0.5 mM and incubated at room temperature over night. Cultures were harvested by centrifugation at 8000 g for 5 minutes and pellets were stored at −20° C. until protein preparation.
The His6-tagged proteins were IMAC purified under denaturing conditions using His-Gravitrap™ kit (GE Healthcare). The pellets were re-suspended (vortexed) in 20 ml of the denaturation buffer B-7M (100 mM NaH2PO4, 10 mM Tris-Cl, 7 M urea, pH 8) and 8 μl benzonase was added.
Biosensor analysis on a Biacore2000 instrument (Biacore) was performed with HSA (SIGMA, cat. no. A3782-5G) immobilized by amine coupling onto the carboxylated dextran layer on surfaces of a CM-5 chip (research grade; Biacore), according to the manufacturer's recommendations. […] One cell surface on the chip was activated and deactivated and used as reference cell during injections. The purified His6-ABD samples were diluted in HBS-EP (Biacore) to 4, 10, 40, 100 and 400 nM for ABDwt and to 0.2, 0.8, 2, 5 and 20 nM for the selected ABD variants. The samples were injected at a constant flow-rate of 25 μl/min for 10 min, followed by injection of HBS-EP for 3 hours. The surfaces were regenerated with two injections of 20 μl of 5 and 10 mM HCl.

[3] = target: T1, HSA (human serum albumin); assay: Biosensor (Biacore) analysis of ABD variants' binding to human serum albumin (Example 2); conditions: N-terminal His6-tagged proteins injected at 25 nM; HSA immobilized 360 RU; qualitative measure of relative affinities
Description: as §1, §2

[4] = Solubility in aqueous solvents (general statement); format: physicochemical
Description: For example, 30% organic solvent is needed to keep the conjugate in solution.

Chain of MSA (mouse serum albumin) (P07724 25-608): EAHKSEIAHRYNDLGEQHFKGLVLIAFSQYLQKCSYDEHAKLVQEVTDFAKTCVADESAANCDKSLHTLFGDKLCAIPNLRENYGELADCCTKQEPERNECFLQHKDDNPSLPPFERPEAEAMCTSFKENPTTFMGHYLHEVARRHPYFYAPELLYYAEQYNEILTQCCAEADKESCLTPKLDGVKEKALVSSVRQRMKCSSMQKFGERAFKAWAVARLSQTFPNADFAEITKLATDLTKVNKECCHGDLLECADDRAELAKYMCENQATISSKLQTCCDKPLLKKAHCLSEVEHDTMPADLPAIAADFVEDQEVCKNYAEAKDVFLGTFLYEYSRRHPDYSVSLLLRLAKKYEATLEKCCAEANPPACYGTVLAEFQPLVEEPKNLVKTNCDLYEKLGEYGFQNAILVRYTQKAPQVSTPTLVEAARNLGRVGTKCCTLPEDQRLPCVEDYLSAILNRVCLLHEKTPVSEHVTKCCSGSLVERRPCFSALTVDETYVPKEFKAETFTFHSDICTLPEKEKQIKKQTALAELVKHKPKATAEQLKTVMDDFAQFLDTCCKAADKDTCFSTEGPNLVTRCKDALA

## ABDwt
[1]
  Kd: 4.9 nM
[2]
  Kd: 1.2 nM
  ka to HSA: 550000 M/s
  kd to HSA: 0.00065 s⁻¹
[3]
  Kd: 1.5 nM

## COc1cccc2c1C(=O)c1c(O)c3c(c(O)c1C2=O)C[C@@](O)(C(=O)CO)CC3O[C@H]1CC(NC(=O)OCc2ccc(NC(=O)OCc3ccc(NC(=O)[C@H](CCCNC(N)=O)NC(=O)[C@@H](NC(=O)CCCCCN4C(=O)C=CC4=O)C(C)C)cc3)cc2)C(O)[C@@H](C)O1 (stereo partly drawn) [free linker, Maleimide-Spacelinker-Doxorubicin]
[4]
  solubility in aqueous solvents: low solubility

From patent US8937153B2, “Compositions, methods and uses” (Affibody AB, priority 2007, dated 2015)
